Results reported in article PMC9267055.

How the values were obtained:
[1] = molecular target: GPI-APs (transferred from wildtype EL cells to ManN-treated human adipocytes) (human (endogenous in K562 EL cells))
[2] = molecular target: GPI-APs (transferred from wildtype EL cells to ManN-treated human adipocytes) (human (endogenous in K562 EL cells)); remark: listed apart in the source

decrease in transfer of GPI-APs from wildtype EL cells to ManN-treated human adipocytes in transwell co-culture (1 week), read by SAW sensing of acceptor PM; BSA 50 mg/mL, final dilution 1:75 [1] | transfer of GPI-APs from wildtype EL cells to ManN-treated human adipocytes in transwell co-culture (1 week), read by SAW sensing of acceptor PM; GPLD1 100 mU/mL (% of serum inhibition) [2] | Molecule
35% |  | BSA (fraction V, defatted) (from UniProt P02769 25-607) (natural protein)
 | 70 | serum GPLD1 (enzyme) CGLSTHVEIGHRALEFLQLHNGRVNYRELLLEHQDAYQAGIVFPDCFYPSICKGGKFHDVSESTHWTPFLNASVHYIRENYPLPWEKDTEKLVAFLFGITSHMAADVSWHSLGLEQGFLRTMGAIDFHGSYSEAHSAGDFGGDVLSQFEFNFNYLARRWYVPVKDLLGIYEKLYGRKVITENVIVDCSHIQFLEMYGEMLAVSKLYPTYSTKSPFLVEQFQEYFLGGLDDMAFWSTNIYHLTSFMLENGTSDCNLPENPLFIACGGQQNHTQGSKMQKNDFHRNLTTSLTESVDRNINYTERGVFFSVNSWTPDSMSFIYKALERNIRTMFIGGSQLSQKHVSSPLASYFLSFPYARLGWAMTSADLNQDGHGDLVVGAPGYSRPGHIHIGRVYLIYGNDLGLPPVDLDLDKEAHRILEGFQPSGRFGSALAVLDFNVDGVPDLAVGAPSVGSEQLTYKGAVYVYFGSKQGGMSSSPNITISCQDIYCNLGWTLLAADVNGDSEPDLVIGSPFAPGGGKQKGIVAAFYSGPSLSDKEKLNVEAANWTVRGEEDFSWFGYSLHGVTVDNRTLLLVGSPTWKNASRLGHLLHIRDEKKSLGRVYGYFPPNGQSWFTISGDKAMGKLGTSLSSGHVLMNGTLKQVLLVGAPTYDDVSKVAFLTVTLHQGGATRMYALTSDAQPLLLSTFSGDRRFSRFGGVLHLSDLDDDGLDEIIMAAPLRIADVTSGLIGGEDGRVYVYNGKETTLGDMTGKCKSWITPCPEEKAQYVLISPEASSRFGSSLITVRSKAKNQVVIAAGRSSLGARLSGALHVYSLGSD
